Assay results from EP4279092A1 (Bayer AG, dated 2023).

Biological target: prostate-specific membrane antigen (PSMA) on prostate cancer cell lines (human, UniProt Q04609 1-750)
Experiment: cell-based or functional assay

prostate-specific membrane antigen (PSMA) on prostate cancer cell lines, sequence (Q04609 whole entry): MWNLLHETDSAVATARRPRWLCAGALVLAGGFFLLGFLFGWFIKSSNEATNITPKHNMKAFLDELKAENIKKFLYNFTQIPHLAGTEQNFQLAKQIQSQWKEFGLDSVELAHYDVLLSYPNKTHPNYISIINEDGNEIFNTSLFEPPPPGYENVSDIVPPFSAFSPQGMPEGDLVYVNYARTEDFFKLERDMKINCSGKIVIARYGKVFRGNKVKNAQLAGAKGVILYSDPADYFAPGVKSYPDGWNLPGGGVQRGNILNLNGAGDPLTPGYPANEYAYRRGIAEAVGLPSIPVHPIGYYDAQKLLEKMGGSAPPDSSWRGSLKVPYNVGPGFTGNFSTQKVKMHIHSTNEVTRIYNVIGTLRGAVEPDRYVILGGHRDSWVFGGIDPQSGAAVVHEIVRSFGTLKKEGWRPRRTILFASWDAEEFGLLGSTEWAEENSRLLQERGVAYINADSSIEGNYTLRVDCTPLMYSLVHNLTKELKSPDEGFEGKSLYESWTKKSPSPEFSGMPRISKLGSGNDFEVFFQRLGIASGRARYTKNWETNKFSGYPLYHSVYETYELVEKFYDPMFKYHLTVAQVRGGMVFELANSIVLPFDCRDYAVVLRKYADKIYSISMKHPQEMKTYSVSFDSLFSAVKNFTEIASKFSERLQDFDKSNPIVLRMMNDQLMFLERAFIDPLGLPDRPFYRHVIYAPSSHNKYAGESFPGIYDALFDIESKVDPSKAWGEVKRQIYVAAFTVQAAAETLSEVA

| Binder | IC50, in-vitro cytotoxicity (CellTiterGlo), C4-2 cells | IC50, in-vitro cytotoxicity (CellTiterGlo), MDA-PCa-2b cells |
| --- | --- | --- |
| Ac-225-macropa-Pelgifatamab (CAR 0.8) (antibody, V domains shown, macropa chelator complexing 225Ac, coupled via thiourea to the terminal amino group of a Lysine residue; chelator-to-antibody ratio 0.8; chain and position not stated) VH: QVQLVESGGGVVQPGRSLRLSCAASGFAFSRYGMHWVRQAPGKGLEWVAVIWYDGSNKYYADSVKGRFTISRDNSKNTQYLQMNSLRAEDTAVYYCARGGDFLYYYYYGMDVWGQGTTVTVSS VL: DIQMTQSPSSLSASVGDRVTITCRASQGISNYLAWYQQKTGKVPKFLIYEASTLQSGVPSRFSGGGSGTDFTLTISSLQPEDVATYYCQNYNSAPFTFGPGTKVDIKR | 0.09 kBq/ml | 0.05 kBq/ml |
| Ac-225-DOTA-Pelgifatamab CAR 5.7 (antibody, V domains shown, p-SCN-Bn-DOTA chelator complexing 225Ac, coupled to the terminal amino group of Lysine residues; chelator-to-antibody ratio 5.7; chain and positions not stated) VH: QVQLVESGGGVVQPGRSLRLSCAASGFAFSRYGMHWVRQAPGKGLEWVAVIWYDGSNKYYADSVKGRFTISRDNSKNTQYLQMNSLRAEDTAVYYCARGGDFLYYYYYGMDVWGQGTTVTVSS VL: DIQMTQSPSSLSASVGDRVTITCRASQGISNYLAWYQQKTGKVPKFLIYEASTLQSGVPSRFSGGGSGTDFTLTISSLQPEDVATYYCQNYNSAPFTFGPGTKVDIKR | 0.15 kBq/ml | 0.09 kBq/ml |
| Ac-225-DOTA-Pelgifatamab CAR 12.7 (antibody, V domains shown, p-SCN-Bn-DOTA chelator complexing 225Ac, coupled to the terminal amino group of Lysine residues; chelator-to-antibody ratio 12.7; chain and positions not stated) VH: QVQLVESGGGVVQPGRSLRLSCAASGFAFSRYGMHWVRQAPGKGLEWVAVIWYDGSNKYYADSVKGRFTISRDNSKNTQYLQMNSLRAEDTAVYYCARGGDFLYYYYYGMDVWGQGTTVTVSS VL: DIQMTQSPSSLSASVGDRVTITCRASQGISNYLAWYQQKTGKVPKFLIYEASTLQSGVPSRFSGGGSGTDFTLTISSLQPEDVATYYCQNYNSAPFTFGPGTKVDIKR | 0.29 kBq/ml | 0.2 kBq/ml |
